Test results as given in PMC2615091.

Target: lamin B1 (mouse (endogenous in mouse embryonic fibroblasts)) (UniProt P14733)
Test: FRET or BRET

Sequence of UniProt P14733 (P14733 whole entry): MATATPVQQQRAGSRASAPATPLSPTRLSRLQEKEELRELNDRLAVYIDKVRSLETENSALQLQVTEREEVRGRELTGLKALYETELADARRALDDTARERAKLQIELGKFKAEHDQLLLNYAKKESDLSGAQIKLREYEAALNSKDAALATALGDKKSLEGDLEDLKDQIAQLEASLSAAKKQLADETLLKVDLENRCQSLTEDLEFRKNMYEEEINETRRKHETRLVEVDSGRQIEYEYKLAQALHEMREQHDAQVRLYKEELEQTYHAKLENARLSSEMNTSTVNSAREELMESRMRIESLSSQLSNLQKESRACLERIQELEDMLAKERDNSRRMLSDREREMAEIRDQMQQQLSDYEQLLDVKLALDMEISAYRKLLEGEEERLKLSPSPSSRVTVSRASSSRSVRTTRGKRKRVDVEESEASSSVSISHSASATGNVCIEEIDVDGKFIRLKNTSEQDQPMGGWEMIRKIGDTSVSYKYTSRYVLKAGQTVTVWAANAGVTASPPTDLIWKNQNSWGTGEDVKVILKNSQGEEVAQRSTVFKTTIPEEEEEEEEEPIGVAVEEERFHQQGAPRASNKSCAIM

An FRET efficiency of 4.63% was found for “Oct-1–EGFP (from UniProt P14859 1-743) (natural protein)” in this work.
